Assay results: US20250101108

Tests used:
PD-L2-FLAG = PD-L2-FLAG (UniProt Q9BQ51)
PD-L1-FLAG = PD-L1-FLAG (UniProt Q9NZQ7)
PD-L1 = PD-L1 (UniProt Q9NZQ7)
Sequence of PD-L1 (Q9NZQ7 19-290): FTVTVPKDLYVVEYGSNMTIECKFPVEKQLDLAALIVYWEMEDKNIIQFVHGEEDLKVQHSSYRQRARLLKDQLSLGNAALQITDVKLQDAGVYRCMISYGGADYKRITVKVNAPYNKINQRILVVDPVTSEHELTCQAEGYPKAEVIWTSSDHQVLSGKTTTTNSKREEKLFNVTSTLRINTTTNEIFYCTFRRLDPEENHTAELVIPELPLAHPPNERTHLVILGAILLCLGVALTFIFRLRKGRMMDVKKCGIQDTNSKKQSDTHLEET

Sequence of E3 ligase ITCH (chain, as listed by the source): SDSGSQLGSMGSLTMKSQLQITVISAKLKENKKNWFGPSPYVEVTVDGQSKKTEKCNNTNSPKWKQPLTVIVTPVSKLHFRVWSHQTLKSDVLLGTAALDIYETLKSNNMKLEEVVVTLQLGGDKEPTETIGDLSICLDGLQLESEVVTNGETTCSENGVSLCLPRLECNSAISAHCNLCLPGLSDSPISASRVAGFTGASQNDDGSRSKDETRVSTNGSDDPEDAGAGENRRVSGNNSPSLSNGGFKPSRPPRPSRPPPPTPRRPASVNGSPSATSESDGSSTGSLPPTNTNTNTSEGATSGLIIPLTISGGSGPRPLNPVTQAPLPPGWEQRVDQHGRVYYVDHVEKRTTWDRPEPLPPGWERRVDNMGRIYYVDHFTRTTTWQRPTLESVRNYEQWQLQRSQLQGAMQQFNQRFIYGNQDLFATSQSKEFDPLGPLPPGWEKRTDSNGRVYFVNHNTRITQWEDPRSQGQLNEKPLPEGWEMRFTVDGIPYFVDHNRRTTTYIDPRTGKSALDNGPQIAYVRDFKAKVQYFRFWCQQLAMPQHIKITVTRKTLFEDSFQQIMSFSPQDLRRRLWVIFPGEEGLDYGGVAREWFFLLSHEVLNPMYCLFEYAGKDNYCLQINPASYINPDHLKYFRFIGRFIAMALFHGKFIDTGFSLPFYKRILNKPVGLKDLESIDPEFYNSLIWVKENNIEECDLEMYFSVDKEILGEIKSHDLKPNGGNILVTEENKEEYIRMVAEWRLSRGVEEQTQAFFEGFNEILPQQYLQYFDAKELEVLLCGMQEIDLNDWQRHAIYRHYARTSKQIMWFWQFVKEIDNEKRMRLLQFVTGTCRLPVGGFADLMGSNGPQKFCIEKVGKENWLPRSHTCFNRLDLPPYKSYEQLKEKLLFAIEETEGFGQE
Sequence of PD-L1-FLAG (Q9NZQ7 19-290): as the sequence (Q9NZQ7 19-290) above
Sequence of PD-L2-FLAG (Q9BQ51 20-273): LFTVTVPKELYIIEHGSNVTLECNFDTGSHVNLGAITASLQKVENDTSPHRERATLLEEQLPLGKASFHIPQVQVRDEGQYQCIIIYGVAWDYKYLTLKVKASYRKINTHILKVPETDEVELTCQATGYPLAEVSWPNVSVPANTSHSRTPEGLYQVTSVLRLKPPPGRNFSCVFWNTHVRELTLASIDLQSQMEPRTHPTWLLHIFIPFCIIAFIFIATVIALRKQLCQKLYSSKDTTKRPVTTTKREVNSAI

Substance: E3 ligase ITCH
- poly-ubiquitination (anti-FLAG IP, Western blot of ubiquitin) (PD-L2-FLAG): co-transfection of ITCH with either PD-L1-FLAG (FIG. 2E) or PD-L2-FLAG (FIG. 9I) led to poly-ubiquitination of PD-L1 or PD-L2, respectively
- poly-ubiquitination (anti-FLAG IP, Western blot of ubiquitin) (PD-L1-FLAG): co-transfection of ITCH with either PD-L1-FLAG (FIG. 2E) or PD-L2-FLAG (FIG. 9I) led to poly-ubiquitination of PD-L1 or PD-L2, respectively
- ubiquitination sites by mass spectrometry (PD-L1-FLAG): Mass spectrometry analysis identified lysine 46 (K46) and K162 of PD-L1 as major ubiquitination sites caused by ITCH over-expression in 293T cells
- poly-ubiquitination of endogenous PD-L1 (anti-PD-L1 IP, Western blot of ubiquitin) (PD-L1): knockdown of endogenous ITCH reduced PD-L1 poly-ubiquitination (FIGS. 2F, 2G), while over-expression of ITCH increased PD-L1 poly-ubiquitination (FIG. 2H)
